# Measurements taken from patent US20250215091A1, “Anti-GAL3 Antibodies and Compositions” (Les Laboratoires Servier, priority 2022, published 2025).
# B1: E07: anti-Gal3 monoclonal antibody, IgG1 format; VH SEQ ID NO 42, VL SEQ ID NO 43 (antibody, V domains shown)
# VH: EVQLVESGGSLVKPGGSLRLSCAASGFTFSNYNMNWVRQAPGKGLEWISNIYGSSRYIYYADFVKGRFTISRDNAKNSLYLQMNSLRAEDTAVYYCVRSYYGGMDVWGRGTLVTVSS
# VL: QSVLTQPASVSGSPGQSITISCAGTSSDVGGYYSVSWYQQHPGKAPKLMIYYDSNRPSGVSNRFSGSKSGNTASLTISGLQAEDEADYYCSSYTGYSTRVFGGGTKLEIK
# Tests used:
# [1] = test system: murine model of HOCI-induced fibrosis; test: HOCI-induced murine fibrosis model: skin thickness; format: in vivo, mice
# [2] = test system: plasma IL-5; test: HOCI-induced murine fibrosis model: plasma IL-5 (MSD); format: in vivo, mice; conditions: first experiment, day 42; vs HOCI group; FIG. 9
# Description: (§1) In a first experiment, control mice (n=12) received a daily intradermal injection of 300 μL of sterile phosphate buffer saline (PBS) for 5 consecutive days per week, for a duration of 42 days. HOCI alone and HOCI with antibody (HOCI-antibody) treated mice (n=12 per group) received a daily intradermal injection of 300 μL of HOCI for 5 consecutive days per week, for a duration of 42 days. Antibody-treated mice also received a subcutaneous injection of 20 mg/kg antibody, starting at day minus one and every 5 days between day 5 and day 40. Each antibody was solubilized in sterile, endotoxin-free PBS before injection. In a second experiment, the same protocol was applied, except that duration of the study was 63 days and antibodies were given every 7 days starting at day minus 1 until day 62.
# (§2) Mice that received daily injection of HOCI were also treated by intratracheal instillation of 0.5 mg/kg of TD139 compound (HOCI-TD139), a small molecule Gal3 inhibitor. In a first experiment, the administrations started from day 21 and the compound was given every 3 days until day 39. In a second experiment, the administrations started from day 20 and the compound was given every 3 days until day 62. TD139 was initially dissolved in 100% DMSO then diluted 50-fold in endotoxin-free PBS before administration.
# (§3) In the first experiment, a mixed effect model with repeated measurements was performed on Control group, HOCI treated group, HOCI-antibody- and HOCI-TD139-treated groups. The impact of HOCI administration on plasma IL-6 and IL-5 levels was evaluated compared to the control group. The impact of antibody and TD139 treatments was compared to the HOCI group (FIG. 9). IL-6 and IL-5 were quantified by using the MSD technology from Mesoscale.
# [3] = test system: rat model of ARDS; test: Rat ARDS model (LPS challenge): neutrophils counts in BALF; format: in vivo; conditions: antibodies 14 mg/kg x3 prior to LPS; dexamethasone 10 mg/kg oral; vs LPS group; FIG. 16
# Outline: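 Rats dosed with antibody 14 mg/kg or PBS on days −11, −6 and −1, then LPS 0.25 mg/kg subcutaneously on day 1; reference group got oral dexamethasone 10 mg/kg 2 h before LPS. Neutrophils counted in bronchoalveolar lavage fluid.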
# [4] = test system: plasma TNF alpha; test: Rat ARDS model (LPS challenge): plasma TNF alpha (MSD); format: in vivo; conditions: 4 h following LPS challenge; vs LPS group; FIG. 18
# Outline: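 Rats given anti-Gal3 antibodies (14 mg/kg in PBS) or PBS on days −11, −6 and −1, then challenged with LPS 0.25 mg/kg s.c. on day 1; dexamethasone 10 mg/kg p.o. 2 h pre-LPS as reference. Plasma sampled 4 h post-LPS; TNF alpha quantified by MSD.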
# [5] = test system: plasma IL-6; test: HOCI-induced murine fibrosis model: plasma IL-6 (MSD); format: in vivo, mice; conditions: first experiment, day 42; vs HOCI group; FIG. 9
# Description: as §1, §2, §3
# [6] = test system: plasma Gal3; test: HOCI-induced murine fibrosis model: plasma Gal3 (ELISA); format: in vivo, mice; conditions: first experiment, day 42; FIG. 10
# Description: as §1, §2
# In the first experiment, the plasma levels of Gal3 were measured at day minus 1 (before antibody administration) and at termination day (day 42) using a mouse Galectin-3 DuoSet ELISA kit (R&D Systems, DY1197) according to the manufacturer's instructions. Plasma samples were diluted 1:200 in order to fit with the dynamic range of the assay.
# [7] = test system: genes differentially regulated between HOCI group and control group in whole blood cells; test: HOCI-induced murine fibrosis model: whole blood RNA sequencing; format: in vivo, mice; conditions: of 510 genes differentially regulated HOCI vs control; day 42, whole blood
# Description: as §1, §2
# In the first experiment, global gene expression was examined at day 42 in whole blood cells by RNA sequencing.
# Whole blood was collected in RNA protect tubes (Qiagen) and were processed for RNA extraction using the RNeasy Protect Animal blood kit with the optional on-column DNAse I digestion. Total RNA samples were quantified on Nanodrop 2000 (ThermoFisher Scientific™) and analyzed on Bioanalyzer (Agilent) using RNA 6000 Nano chips to determine RNA quality (RIN). Total RNA matching the QC criteria were included in the study. Purified RNA samples were used as input for the TruSeq Strand-specific RNA-seq (poly A selection and globin depletion) according to manufacturer's protocol (Illumina). […]
# Raw reads were processed using the in-house RNAExp Expression pipeline 2.1 and the quality was assessed using FastQC tools. Then, reads were trimmed for adaptors using Cutadapt and trimmed reads were aligned to mouse mm39 reference genome using the STAR aligner. Aligned data were evaluated for quality using Samtools and Picard tools. Then, aligned reads per gene were quantified using FeatureCount. […] Read count were normalized by the variance stabilizing transformation vst function from DESeq2 R package.
# 55,416 genes were detected in the data. […] Genes differentially expressed between groups were determined using a linear model (ImFit function from limma R package) on vst transformation gene expression dataset. […]
molecule,measurement,setting,value
B1,HOCI-induced increase in skin thickness,"[1]; first experiment, 42 days, antibody 20 mg/kg s.c., TD139 0.5 mg/kg intratracheal, vs HOCI group, FIG. 7A",significantly reduced
same,day from which reduction of skin thickness was significant,"[1]; first experiment, sustained effect until day 42",21 days
same,HOCI-induced increase in skin thickness,"[1]; second experiment, 63 days, antibody 20 mg/kg s.c. every 7 days, sustained effect until day 63, FIG. 7B",significantly reduced
same,day from which reduction of skin thickness was significant,"[1]; second experiment, sustained effect until day 63",7 days
same,plasma IL-5 levels,[2],decreased significantly
same,neutrophils counts in BALF,[3],also decreased
same,TNF alpha plasma levels,[4],"also decreased, displaying an intermediary profile"
same,plasma IL-6 levels,[5],significantly decreased the plasma IL-6 levels to values similar to those of control mice
same,plasma Gal3 levels,[6],restored the plasma Gal3 levels to values similar to those of the control group
same,number of HOCI-dysregulated genes counteracted by treatment,[7],445 genes
same,percentage of HOCI-dysregulated genes counteracted by treatment,[7],87.2%
